# Columns and labels:
# [1] = Qualitative investigation of aggregation by size exclusion chromatography (gel filtration); format: physicochemical; settings: Superose 12, compared to the five isoforms of PDE4D (D3, D5-D8)
# Procedure: The term “improved physicochemical properties” as used herein refers to a decrease in aggregate formation of polypeptides. For the purpose of definition, aggregate formation of the polypeptides of this invention is determined by quantitation of the fractions of a gelfiltration experiment in which aggregated PDE elutes, and of the fractions in which non-aggregated PDE elutes. The degree of aggregation is calculated in percent of non-aggregated PDE based on total (aggregated and non-aggregated) PDE. […] Chromatograms were recorded at 278 nm. […]
# 50 μl of Ni-NTA agarose purified isoform preparation was injected into a Superose 12 size exclusion column (type PC3.2/30; Amersham Pharmacia Biotech), equilibrated with 50 mM TrisHCl pH 7.7, 100 mM NaCl, 0.5 mM MgCl2 at a flow rate of 0.1 ml/min at 4° C. Chromatograms were recorded at 278 nm. […]
# [2] = Quantification of aggregates and tubulin content (SDS-PAGE densitometry of SEC fractions); format: physicochemical; settings: compared to isoforms D3 and D5 to D8
# Source text: In a preferred embodiment, the invention provides a polypeptide comprising a PDE polypeptide sequence, with an amino-terminal deletion wherein the proportion of non-aggregated PDE in the total protein preparation is from 55 %, preferably from 60%, more preferably from 65%, most perferably from 68% to 100%, preferably to 90%, more preferably to 80%, most preferably to 70% of total protein, as determined by the quantitation of eluted fractions from a gel filtration of the PDE fractions. Quantitation was performed as follows: Equal volume aliquots of fractions from Size Exclusion Chromatography, run as hereinbefore described, were analyzed by SDS-PAGE (one gel per run and isoform, FIG. 3). […]
# To determine the decrease in tubulin association, the ratio of PDE molecules per tubulin molecules in the preparation of PDE polypeptide was calculated by quantitation of SDS-PAGE. […] The tubulin content of PDE preparations was determined as follows: Equal volume aliquots of fractions from SEC were analyzed by SDS-PAGE (one gel per run and isoform, FIG. 3). Optical densities of Coomassie stained PDE and tubulin bands were integrated as described hereinbefore for PDE aggregation quantitation. […]
# Quantification of Aggregates and Tubulin Content
# Equal volume aliquots of fractions from SEC were analyzed by SDS-PAGE (one gel per run and isoform, FIG. 3). […]
molecule,measurement,setting,value
"DC: PDE4D polypeptide with amino-terminal deletion starting at the LF1 splice site, SEQ ID No. 2, 6xHis tagged (protein, listed as Homo sapiens, 6xHis tag; PDE4D_core (1)..(664); LF1_splice_site (2)..(2); UCR1_site_-13 (22)..(22); UCR1_site (35)..(35); SER54 (39)..(39); SER579 (564)..(564)) MFDVDNGTSAGRSPLDPMTSPGSGLILQANFVHSQRRESFLYRSDSDYDLSPKSMSRNSSIASDIHGDDLIVTPFAQVLASLRTVRNNFAALTNLQDRAPSKRSPMCNQPSINKATITEEAYQKLASETLEELDWCLDQLETLQTRHSVSEMASNKFKRMLNRELTHLSEMSRSGNQVSEFISNTFLDKQHEVEIPSPTQKEKEKKKRPMSQISGVKKLMHSSSLTNSSIPRFGVKTEQEDVLAKELEDVNKWGLHVFRIAELSGNRPLTVIMHTIFQERDLLKTFKIPVDTLITYLMTLEDHYHADVAYHNNIHAADVVQSTHVLLSTPALEAVFTDLEILAAIFASAIHDVDHPGVSNQFLINTNSELALMYNDSSVLENHHLAVGFKLLQEENCDIFQNLTKKQRQSLRKMVIDIVLATDMSKHMNLLADLKTMVETKKVTSSGVLLLDNYSDRIQVLQNMVHCADLSNPTKPLQLYRQWTDRIMEEFFRQGDRERERGMEISPMCDKHNASVEKSQVGFIDYIVHPLWETWADLVHPDAQDILDTLEDNREWYQSTIPQSPSPAPDDPEEGRQGQTEKFQFELTLEEDGESDTEKDSGSQVEEDTSCSDSKTLCTQDSESTEIPLDEQVEEEAVGEEEESQPEACVIDDRSPDTHHHHHH",Aggregate formation (gel filtration elution profile),[1],decrease in aggregation
same,Percentage of non-aggregated PDE4D based on total PDE4D protein,[2],highest percentage of non-aggregated PDE4D
same,"Tubulin content (ratio between PDE4D and tubulin, total mass basis)",[2],significantly lower
